Source: patent US20020127539A1, “Assays for identifying receptors having alterations in signaling” (priority 2000, published 2002)

T1: CCK-BR (Homo sapiens, UniProt P32239, L325E)
T1 sequence (P32239 1-447 L325E): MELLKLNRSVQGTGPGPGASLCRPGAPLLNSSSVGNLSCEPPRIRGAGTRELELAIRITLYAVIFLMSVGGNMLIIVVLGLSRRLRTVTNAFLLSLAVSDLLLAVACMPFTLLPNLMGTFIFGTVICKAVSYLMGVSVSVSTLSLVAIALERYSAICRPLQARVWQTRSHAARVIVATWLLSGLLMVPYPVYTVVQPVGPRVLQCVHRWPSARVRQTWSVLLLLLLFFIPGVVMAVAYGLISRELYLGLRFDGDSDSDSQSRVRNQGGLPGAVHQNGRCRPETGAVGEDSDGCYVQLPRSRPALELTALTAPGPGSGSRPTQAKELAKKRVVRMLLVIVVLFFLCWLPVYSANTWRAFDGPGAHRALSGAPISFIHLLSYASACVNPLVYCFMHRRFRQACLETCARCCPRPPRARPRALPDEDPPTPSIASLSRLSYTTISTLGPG


Legend:
CCK-BR [1] = target: T1, CCK-BR; set-up: expressed in transfected cells; host or cells: COS-7; settings: COS-7, absence of agonist; cited from earlier work
CCK-BR [2] = target: T1, CCK-BR; assay: SMS-Luc luciferase reporter assay in HEK293 cells; assay type: cell-based; set-up: expressed in transfected cells; host or cells: HEK293; settings: FIG. 2
Text: HEK293 cells were transfected (as described above) with SMS-Luc and an expression vector encoding any one of pcDNA1, wild-type CCK-BR, or Leu325Glu CCK-BR.

rat mu opioid receptor [3] = target: T2, rat mu opioid receptor (Rattus norvegicus, UniProt P33535, N150A); assay: CRE-Luc luciferase reporter assay with forskolin stimulation; assay type: cell-based; settings: 0.5 μM forskolin; a decrease means more Gαi signaling
T2 construct: expressed in transfected cells; host or cells: HEK293
Text: Similarly, a constitutively active rat mu opioid receptor was identified using a reporter construct sensitive to Gαi coupling (see FIG. 3). The response element employed in this assay was the cAMP-response element (CRE), which is sensitive to Gαi mediated changes in intracellular levels of cAMP. Signaling through the rat mu opioid receptor via Gαi inhibits adenylate cyclase, causing a decrease in intracellular cAMP. Therefore, an increase in rat mu opioid receptor signaling induces a decrease in CRE mediated reporter activity.
Prior to the present invention, Gαi-mediated decreases in intracellular cAMP were measured by (1) stimulating cells with forskolin, which causes receptor-independent activation of adenylate cyclase and generates an intracellular pool of cAMP; (2) stimulating the cells with ligand; and (3) measuring the ligand-induced, receptor-dependent Gαi-mediated decrease in the intracellular cAMP pool (e.g., using a radioimmunoassay (e.g., New England Nuclear, Boston, Mass.)). […] The basal (and ligand-induced) level of receptor activity was then measured using a standard luciferase assay (see FIG. 3). Coexpression of the receptor of interest with a luciferase reporter gene construct allows one to measure light emission as a readout for basal signaling.

rat mu opioid receptor [4] = assay: SRE-Luc/Gq5i luciferase reporter assay in HEK293 cells; assay type: cell-based; settings: HEK293, SRE + Gq5i; for Average Ligand Stimulated Activity (Light Emission): ligand DAMGO; for Average Basal Activity (Light Emission): no ligand
Experimental: (§1) Reagents & Solutions: The cell culture media used in the assays described below was Gibco BRL #12100-046. This media was made according to manufacturer's recipe, pH adjusted to 7.2, filtered (0.22 micron pore), and supplemented with 1% Pen/Strep (Gibco #15140-122; 100% penicillin G 10,000 units/ml, and streptomycin 10,000 μg/ml) and 10% fetal bovine serum. Cell culture media lacking 10% fetal bovine serum was also generated. DNA used in the transfection experiments was purified and quantitated by measuring the absorbance at OD260. A LucLite Luciferase Assay Kit (Packard) was used to quantitate luciferase activity. Transfections were carried out using LipofectAMINE Reagent (Gibco #18324-012).
(§2) Constitutive activity of the Asn150Ala mutant rat mu opioid receptor was assessed using a luciferase assay. The rat mu opioid receptor is a Gαi coupled receptor. Therefore we chose to use the Gq5i reporter system, described in detail above (Broach and Thorner, supra), which switches the signaling pathway from Gαi to Gαq for reliable positive readout. HEK293 cells were transfected with the reporter construct SRE-Luc, an expression vector containing nucleic acid encoding Gq5i (Broach and Thorner, supra), and an expression vector containing nucleic acid encoding either the wild-type or the Asn150Ala mutant rat mu opioid receptor. Basal and ligand-stimulated luciferase activity was measured. The ligand used in this assay was [D-Ala^2-MePhe^4, Gly-ol^5]enkephalin] (DAMGO). As a negative control, HEK293 cells were transfected with pcDNA1 (empty vector DNA), SRE-Luc, and the expression vector containing nucleic acid encoding Gq5i (Broach and Thorner, supra).
(§3) The luciferase assay was carried out as follows. On day 1, HEK293 cells in a T75 flask were washed with 15 ml serum-free media (or PBS), trypsinized with 5 ml 0.05% trypsin-EDTA (Gibco #25300-062), incubated at 37° C. for 3 minutes at which time 6-7 ml complete HEK293 media (Gibco #12100-046) and 10% Fetal Bovine Serum (Intergen #1050-90) were added. Thereafter, cells were collected in 50 ml centrifuge tubes, pelleted at 800-900 rpm (RCF ˜275), and resuspend in 20 ml complete media. The cells were counted using a haemocytometer and diluted to 85,000 cells/ml in complete media. Using a repeat pipettor or cell plater, 100 μl of cells were added to each well of a Primaria 96-well plate (Falcon #353872). Cells were then incubated at 37° C., 5% CO2 until use at 48 hours.
(§4) On day 3, cells were transfected using LipofectAMINE™ according to the manufacturer's protocol (Gibco #18324-012, Rockville, Md.).
(§5) On day 4, cells were stimulated as follows. Ligands for the receptor, either DAMGO or a non-peptide ligand (e.g., naltrexene or nalonin), were diluted to a desired concentration in serum-free media containing 0.15 mM PMSF (or other protease inhibitor(s)). The transfection media was then completely removed from cells and 50-100 μl stimulation media (i.e., media containing candidate ligands or the corresponding ligand free solvent) was added to each well. The cells were incubated for the desired time (standard is overnight) at 37° C., 5% CO2, although the optimal stimulation time may vary depending on the particular receptor used. The optimal incubation time may be determined systematically by testing a range of incubation times and determining which one yields the highest level of stimulation. For concomitant assessment of two ligands (e.g., ligand induced inhibition of forskolin stimulated CRE activity) each stimulus is prepared at two times the desired final concentration and mixed in equal volumes prior to addition to cells.
(§6) On day 5, an assay for luciferase expression was carried out according to the manufacturer's instructions (Packard, Meridin, Conn.)

rat mu opioid receptor [5] = target: T2, rat mu opioid receptor; assay: as above; assay type: cell-based
Experimental: as §1, §2, §3, §4, §5, §6

Molecule	constitutive production of inositol phosphates (CCK-BR [1])	basal level activity compared to wild-type CCK-BR (CCK-BR [2])	basal CRE-Luc reporter activity compared to wild-type receptor (rat mu opioid receptor [3])	Average Ligand Stimulated Activity (Light Emission) (rat mu opioid receptor [4])	Average Basal Activity (Light Emission) (rat mu opioid receptor [4])	basal activity relative to the maximal level of ligand-stimulated second messenger signaling (rat mu opioid receptor [5])	stimulation of basal level activity (increase in basal activity vs wild-type) (rat mu opioid receptor [5]; HEK293, SRE + Gq5i, listed as Asn150Ala mutant mu opioid receptor)
Leu325Glu CCK-BR mutant: human CCK-BR with point mutation Leu325Glu, constitutively active (protein, UniProt P32239 1-447, looked up, variant L325E) Gastrin/cholecystokinin type …: MELLKLNRSVQGTGPGPGASLCRPGAPLLNSSSVGNLSCEPPRIRGAGTRELELAIRITLYAVIFLMSVGGNMLIIVVLGLSRRLRTVTNAFLLSLAVSDLLLAVACMPFTLLPNLMGTFIFGTVICKAVSYLMGVSVSVSTLSLVAIALERYSAICRPLQARVWQTRSHAARVIVATWLLSGLLMVPYPVYTVVQPVGPRVLQCVHRWPSARVRQTWSVLLLLLLFFIPGVVMAVAYGLISRELYLGLRFDGDSDSDSQSRVRNQGGLPGAVHQNGRCRPETGAVGEDSDGCYVQLPRSRPALELTALTAPGPGSGSRPTQAKELAKKRVVRMLLVIVVLFFLCWLPVYSANTWRAFDGPGAHRALSGAPISFIHLLSYASACVNPLVYCFMHRRFRQACLETCARCCPRPPRARPRALPDEDPPTPSIASLSRLSYTTISTLGPG	levels exceeding wild-type CCK-BR	increased basal level activity					
Asn150Ala rat mu opioid receptor: rat mu opioid receptor with Asn to Ala point mutation at position 150 of SEQ ID NO: 1 (protein, UniProt P33535 1-398, looked up, variant N150A) Mu-type opioid receptor: MDSSTGPGNTSDCSDPLAQASCSPAPGSWLNLSHVDGNQSDPCGLNRTGLGGNDSLCPQTGSPSMVTAITIMALYSIVCVVGLFGNFLVMYVIVRYTKMKTATNIYIFNLALADALATSTLPFQSVNYLMGTWPFGTILCKIVISIDYYAMFTSIFTLCTMSVDRYIAVCHPVKALDFRTPRNAKIVNVCNWILSSAIGLPVMFMATTKYRQGSIDCTLTFSHPTWYWENLLKICVFIFAFIMPVLIITVCYGLMILRLKSVRMLSGSKEKDRNLRRITRMVLVVVAVFIVCWTPIHIYVIIKALITIPETTFQTVSWHFCIALGYTNSCLNPVLYAFLDENFKRCFREFCIPTSSTIEQQNSTRVRQNTREHPSTANTVDRTNHQLENLEAETAPLP			reduction in basal activity	86,996	*56,498	exceeded 50%	approximately 6.5 fold
wild-type rat mu opioid receptor: wild-type rat mu opioid receptor expressed from an expression vector in HEK293 cells (protein, UniProt P33535 1-398, looked up) Mu-type opioid receptor: MDSSTGPGNTSDCSDPLAQASCSPAPGSWLNLSHVDGNQSDPCGLNRTGLGGNDSLCPQTGSPSMVTAITIMALYSIVCVVGLFGNFLVMYVIVRYTKMKTATNIYIFNLALADALATSTLPFQSVNYLMGTWPFGTILCKIVISIDYYNMFTSIFTLCTMSVDRYIAVCHPVKALDFRTPRNAKIVNVCNWILSSAIGLPVMFMATTKYRQGSIDCTLTFSHPTWYWENLLKICVFIFAFIMPVLIITVCYGLMILRLKSVRMLSGSKEKDRNLRRITRMVLVVVAVFIVCWTPIHIYVIIKALITIPETTFQTVSWHFCIALGYTNSCLNPVLYAFLDENFKRCFREFCIPTSSTIEQQNSTRVRQNTREHPSTANTVDRTNHQLENLEAETAPLP				87,461	8,436		
